T1: NPDP-peptide (Plasmodium falciparum)
T1 peptide: KQPADGNPDPNANPNKNN

T2: NANP-peptide (Plasmodium falciparum)
T2 construct: CSP repeat peptide coated at 2 ug/mL in ELISA; also called NANP repeat region peptide
T2 peptide: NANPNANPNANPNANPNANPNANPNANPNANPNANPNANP

T3: 22-110-peptide (Plasmodium falciparum)
T3 construct: N-terminal CSP peptide coated at 1 ug/mL in ELISA
T3 peptide: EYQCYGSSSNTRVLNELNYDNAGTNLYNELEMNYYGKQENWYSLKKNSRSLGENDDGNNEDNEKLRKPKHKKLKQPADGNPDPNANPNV

B1: MGV3 (antibody, V domains shown)
VH: EVQVVESGGDLVQPGGSLRLSCAVYGFTVSDSYMSWVRQAPGKGLEWVSVIYSGSSTYYIDSVKGRFTISRDRSKNTLYLQMNTLRVEDTALYYCARGPNDYRNRKYYYYMDVWGKGTAVTVSS
VL: EIVLTQSPDTLSLSAGERVTLSCRASQSVDSPYLAWYQQRPGQTPRLLIFGASIRATDIPDRFSGGGSGTDFTLTISRLEPEDSGVYYCHQYGNAPYIFGQGTKLEIK
notes: also called biotin-labeled MGV3; biotinylated MGV3
B2: MGG4 (antibody, V domains shown)
VH: QVQLVESGGGVVQPGRSLRLSCAASGFRFSDYGMHWVRQAPGKGLEWVALIWYDGSNESYLDSVKGRFTISRDNSKNTLYLQMNNLRTEDTAVYYCAKLLVGITTDVFDVWGQGTVVTVSS
VL: DIVMTQSPDSLAVSLGERATINCRSSQSVLSSSNNKNYLAWYQHKPRQPPKLLIYWASTRESGVPDRFSGSGSGTDFTLTISSLQAEDVAVYYCQQYYTASPFFGGGTKVEIK
B3: MGH2 (antibody, V domains shown)
VH: QVQLVESGGGVVQPGGSLRLSCTASGFSFSSYAMHWVRQAPGKGLEWVAYTRYDGSNKFYLDSVQGRFTISRDNSKNTLYLEMDSLRLEDTAVYFCAKVGDGTVAGTIDYWGQGTLVTVSS
VL: YIVMTQSPLSLPVTLGQPASISCRSSQSLVYSDGNTYLNWYQQRPGQSPRRLIYKVSNRDSGVPDRFSGSGSGTDFTLKISRVEAEDVGVYYCMQGTHWWTFGQGTKVEIK
B4: MGG3 (antibody, V domains shown)
VH: QEQLVESGGGVVQPGKSLRLSCAASGFTFSTFGMHWVRQAPGKGLEWVAVIWYDGSSKYHADSVKGRFTISRDNSKSTLYLQMNSLRAEDTAMYYCVKVGANWGWRYFDLWGRGTLVTVSS
VL: DIVMTQTPLSLSVTPGQPASISCKSSQSLLHSDGNTYLSWYLQKPGQSPQLLIYEVSSRFSGVPDRFSGSGSGTDFTLKISRVEADDVGVYYCMQGIHSWTFGQGTKVEIK
B5: MGU5 (antibody, V domains shown)
VH: QVQLVESGGGVVQPGRSLRLSCAASGFSFSSYGMHWVRQAPGKGLDWVALIWHDGTNKFYTDSVKGRFTISRDNSKDTLFLQMNSLRVEDTAVYYCTKRAGWGDALDIWGQGTMVTVSS
VL: DIQMTQSPSSLSASVGDRVTITCQASQDISNYLNWYQQKPGKAPKLLIYDASNLETGVPSRFSGSGSATDFTLTISSLQSEDIATYYCQQQRIFGGGTKVEIK
B6: MGU8 (antibody, V domains shown)
VH: QVQLVESGGGVVQPGRSLRLSCAAGGFTFSNYGMHWVRQAPGKGLEWVALIWHDGTNKFYADSVKGRFTISRDNSKNTLSLQMDSLTTEDTAIYFCTKRGGWGDGSDIWGQGTMVTVSS
VL: DIQMTQSPSSLSASVGDRVTITCQASQDVDNYLNWYQHKPGKAPKLLIYDASNLATGVPSRFSGSGSSTDFTLTISSLQSDDFATYYCQQQRIFGGGTRVEIK
B7: MGU12 (antibody, V domains shown)
VH: QVQLVESGGGVVQPGRSLRLSCAASGFSFSSYGMHWVRQAPGKGPEWVAVIWHDGSYSYYADSVRGRFTISRDNSKNTLYLQMNSLRPEDTGMYHCVKVEDYVRGSSHGGAFHIWGQGTMVTVSS
VL: DIQMTQSPSTLSASVGDRVTITCRASQTINNWLAWYQWKPGKAPELLIYKASSLESGVPSRFSGSGSGTEFTLTISSLQPDDFATYYCQQYSSYWTFGQGTKVDIK
B8: MGG8 (antibody, V domains shown)
VH: EVQLVESGGGLVQPGGSLKLSCAASGFMISGSVLHWVRQASGKGLEWLGRIRDKANNEATAYAASVKGRFTISRDDSKDTTYLQMNSLRIEDTAVYYCTRGIIVGDTWHFDPWGQGTLVTVSS
VL: DIVMTQTPLSLSVTPGQTASISCKSSESLLRSDGKTYLYWYLQKPGQSPQLLMYEVSKRFSGVPDRFSGSGSGTDFTLKISRVETDDVGIYYCMQSIQLVTFGQGTKVEIK
B9: MGH1 (antibody, V domains shown)
VH: QVQLVQSGAEVKKPGASVRVSCKTSGYTFTDYYVHWVRQAPGHGLECMGWINPYIGVSKYAQKFQGRVTLTRDTSISTAYMEISRLTSDDTAVYYCAACSNVGCYVYWGQGSLVTVSS
VL: DVVMTQSPLSLPVTLGQPASISCRSSQSLVYSDGNTYLNWFQQRPGQSPRRLIYKVSNRDSGVPDRFSGSGSGTDFTLKISRVEAEDVAIYFCMQGTHWPDTFGQGTKLEIK
B10: MGU1 (antibody, V domains shown)
VH: QVQLVESGGGVVQPGRSLRLSCAASGFAFSSYGMNWVRQAPGKGLEWVAVIWHDGTNKYYRDSVKGRFIISRDNAKNTLYLQMDSLSAEDTAMYYCAIWYLDSPDHGFDIWGRGTMVTVSS
VL: QLVLTQSPSASASLGVSVTLTCTLNNGHSSNAIAWHQQQPGKGPRYLMKVNSDGSHNKGAAVPDRFSGSSSGTERHLTISSLQSDDEADYYCQAWDSGIWVFGGGTKLTVL
B11: MGH3 (antibody, V domains shown)
VH: EVQLVESGGGLVKPGGSLRLSCAASGFTFSSYTMNWVRQAPGKGLEWVSSISSSGSYIYYADSVKGRCTISRDNAKNSLDLQMNSLRAEDAAVYYCARNVLDSSGYPTYFDYWGQGTLVTVSS
VL: DIVMTQSPLSLPVTPGEPASISCRSSQSLLYSNGYNYLDWYVQKPGQSPRLLIYLGSNRASGVPDRFSGSGSGTDFTLRISRVEAEDVGFYYCMQAVQTPLTFGGGTKVEIK
B12: MGG2 (antibody, V domains shown)
VH: EVQLVESGGGLVQPGGSLRLSCAASGFTLNNYWMHWVRQAPGKGLVWVAHINIDGSTTTYADSVKGRFTISRDNAKNTLYLQMNSLRAEDTAVYYCAKGSIKAGGFWSGYSNWFDPWGQGTLVTVSS
VL: QAVVTQEPSLTVSPGGTVTLTCDSDPGPVTSGHYPYWFQQKPGQVPRTLIYDTSNKHSWTPARFSGSLLGGKAALTLSGAQPEDEADYYCLLSYGGAPVFGGGTKLTVL
B13: MGG1 (antibody, V domains shown)
VH: EVQLVESGGGVVRPGGSLRLSCAASGFTFDDYAMSWVRQAPGKGLEWVSGINWNGGSTGYADSVKGRFTISRDNAKNSLYLQMNSLRAEDTALYHCARLGRAAREYYYYYMDVWGKGTTVTVSS
VL: QSVLTQPPSVSAAPGQKVTISCSGSSSNIGNNYVSWYQQLPGTAPKLLIYDNNKRPSGIPDRFSGSKSGTSATLGITGLQTGDEADYYCGTWDSSLSAGVFGGGTKLTVLG
B14: MGU3 (antibody, V domains shown)
VH: EVLLVESGGGLVQPGGSLRLSCAASGFTFSDYNMHWVRQAPGKGLEWLSYISHSSSTTYYADSVRGRFTISRDNAKNSLYLQMNSLRAEDTAVYYCARLRPLSYSGRYRDYWGQGTLVTVSS
VL: DIQMTQSPSSLSASVGDRVTITCQASQDVSNYVNWYQQKPGKAPKVLIYDASTLQTGVPSRFSGSGSGTDFTFSISSLQPEDIATYYCQQYDSLPLTFGGGTKVEIK
B15: MGU10 (antibody, V domains shown)
VH: QVQLVESGGGVVQPGRSLRLSCAASGFAFSNYGMNWVRQAPGKGLEWVAVIWHDGSLKYYTQSVKGRFTISRDNAKNTLFLQMDSLSADDTAMYYCTVWYLETPDDGFDIWGRGTMVTVSS
VL: QLVLTQPPSASASLGVSVTLTCTLSHGHTSKAIAWHQQQPGKGPRYLMKVNSDGSHTKGAAVPDRFSGSTSGAERHFTISNLQSDDEADYYCQAWDSGIWVFGGGTKLTVL
B16: MGU11 (antibody, V domains shown)
VH: QVQLVESGGGVVQPGRSLRLSCVASGFSFSSYGMHWVRQAPGKGLEWVAVIWYDGTNKYYADSVKGRFTISRDNTKNTLYLQMNSLRADDTAMYYCANDIAGWGYDGSNAWGQGTLVTVSS
VL: LSLPVTPGQPASISCKSSQSLVYSDGNTYLNWFQQRPGQSPRRLIYKVSNRDSGVPDRFSGSGSGTDFTLKISRVEAEDVGVYYCMQGTVGFTFGPGTTVDIK

Columns and labels:
[1] = biological target: T1, NPDP-peptide; test: ELISA, peptide coated, titrated antibody
[2] = biological target: T2, NANP-peptide; test: ELISA, peptide coated, titrated antibody
[3] = biological target: T3, 22-110-peptide; test: ELISA, peptide coated, titrated antibody
[4] = biological target: T4, CSP C-terminal peptide 282-383 (Plasmodium falciparum); test: ELISA, C-terminal peptide 282-383 coated at 1 ug/ml
T4 construct: Coated at 1 ug/ml in ELISA; also called C-terminus of CSP

[5] = biological target: T4, CSP C-terminal peptide 282-383; test: ELISA, peptide coated at 1 ug/ml, B cell supernatants from 1/3 to 1/648 dilution

Binder	binding result [1]	binding result [2]	binding result [3]	binding result [4]	EC50 [1]	binding result [5]
B1	binds	no binding	binds	no binding		
B2				no binding	< 0.1 µg/mL	
B3				no binding	< 0.1 µg/mL	
B4				no binding	< 0.1 µg/mL	
B5				no binding	< 0.1 µg/mL	
B6				no binding	< 0.1 µg/mL	
B7				no binding	< 0.1 µg/mL	
B8	binds	binds	binds	no binding		
B9	binds	binds	binds	no binding		
B10	binds	binds	binds	no binding		
B11		binds		no binding		
B12	binds	binds	binds	no binding		
B13			binds	no binding		
B14	no binding	no binding	no binding			binds
B15				no binding		
B16				no binding		

From US20200093909A1 (INSTITUTE FOR RESEARCH IN BIOMEDICINE, published 2020)
